Measurements: patent CN116355095A

Key:
人TIGIT-hFc (human) = 人TIGIT-hFc (human) (UniProt Q495A1); assay: blocking ELISA: Bio-CD155 on coated TIGIT-hFc; reference Ref1
[1] = molecular target: T1, CHO-K1-T1001细胞表达的人TIGIT (human) (UniProt Q495A1); assay: cell ELISA on fixed CHO-K1-T1001 cells; reference Ref1
T1 sequence (looked up): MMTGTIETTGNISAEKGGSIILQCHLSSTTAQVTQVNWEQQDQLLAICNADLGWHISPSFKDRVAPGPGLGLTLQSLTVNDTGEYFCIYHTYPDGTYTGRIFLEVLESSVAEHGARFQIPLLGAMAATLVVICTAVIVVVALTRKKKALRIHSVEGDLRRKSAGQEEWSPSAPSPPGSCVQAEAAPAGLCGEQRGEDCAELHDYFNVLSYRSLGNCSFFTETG

fold better than Ref1 (阻断活性) (人TIGIT-hFc (human)): 1.83 fold
fold better than Ref1 (结合活性) [1]: 1.73 fold
B1: IF091 (鼠源单克隆抗体mab22) (antibody, V domains shown)
VH: EVKLVESGGGLVQPGGSLKLSCVASGFTFSSYTMSWVRQTPEKRLELVAEISSSGGSTYYPDTVKGRFTISRDNAKNTLFLQMNSLKSEDTAMYYCARPGLGAWFAYWGQGTLVTVSA
VL: DVLMTQTPLSLPVSLGDQASISCRSSQSIVHNSGNTYLEWYLQKPGQSPKLLIYKVSNRFSGVPDRFSGSGSGTDFTLKISRVEAEDLGIYYCFQFSHVPRTFGGGTKLEIK
